Type in all cases: binding
The test system of experiment [1] is anti-CR2 SCR1-2 monoclonal antibody 171. Briefly: MBP-CR2 SCR1-2-171 mAb ELISA. The following applies: mutant MBP-CR2 SCR1-2 relative to wild-type; for % 171 mAb Binding: plate-bound 171 mAb. The method, then: See Asokan et al. (2006) J Immunol 177:383-94; Guthridge et al. (2001) J Immunol 167:5758-66; Young et al. (2007) J Biol Chem 282:36614-36625. […] Hannan et al. (2005) J Mol Biol 346:845-58; and Young et al. (2007) J Biol Chem 282:36614-36625.
(§1) After coating, the plates were blocked using 0.1% BSA in a PBS solution, pH 7.4 for one hour at room temperature. The plates were then washed, and incubated with either wild-type or mutant MBP-CR2 SCR1-2, at concentrations ranging from 0.03125-2.0 μg/ml in PBS for one hour at room temperature. After further washing, wild-type or mutant MBP-CR2 binding was detected using commercially available horseradish peroxidase-conjugated anti-MBP mAb (New England Biolabs) according to the manufacturer's instructions.
On the technique in general: An ELISA detects its analyte on a solid surface through an enzyme-linked reagent.

A further experiment deals with anti-CR2 SCR1-2 mAb 629. Briefly: MBP-CR2 SCR1-2-629 mAb ELISA. The following applies: mutant MBP-CR2 SCR1-2 relative to wild-type; for % 629 mAb Bindng: plate-bound 629 mAb.
Excerpt: The excellent correlation observed between our cell-binding studies and the ELISA analyses provides proof-of-principle that the MBP-CR2 SCR1-2 ELISA is an effective means of characterizing CR2-ligand interactions. […] See Asokan et al. (2006) J Immunol 177:383-94; Guthridge et al. (2001) J Immunol 167:5758-66; Young et al. (2007) J Biol Chem 282:36614-36625. […] This epitope overlaps extensively with the binding surface on CR2 described above for EBV gp350, and also with the previously described binding sites for C3dg and C3d. Hannan et al. (2005) J Mol Biol 346:845-58; and Young et al. (2007) J Biol Chem 282:36614-36625.
as §1

The next experiment concerns the target EBV gp350 (Epstein-Barr virus, UniProt P03200). Briefly: MBP-CR2 SCR1-2 mutant-EBV gp350 ELISA. On the set-up: DNA corresponding to residues 1-470 of EBV gp350/220; E. coli biotin carboxyl carrier protein (BCCP) fragment, residues 70-156; hexa-histidine (C); made in house; host or cells: human embryonic kidney 293f freestyle cells (pSecTag2/Hygro B). The note with it: mutant MBP-CR2 SCR1-2. How it is done:
See Martin et al. (1991) J Exp Med 174:1299-311; Young et al. (2007) J Biol Chem 282:36614-36625; Guthridge et al. (2001) Biochemistry 40:5931-41; and Sarrias et al. (2001) J Immunol 167:1490-9. […] Young et al. (2007) J Biol Chem 282:36614-36625.
as §1

Changes are numbered by the printed parent chain. In names and notes the source's numbering stands.

EBV gp350, sequence (P03200 1-470): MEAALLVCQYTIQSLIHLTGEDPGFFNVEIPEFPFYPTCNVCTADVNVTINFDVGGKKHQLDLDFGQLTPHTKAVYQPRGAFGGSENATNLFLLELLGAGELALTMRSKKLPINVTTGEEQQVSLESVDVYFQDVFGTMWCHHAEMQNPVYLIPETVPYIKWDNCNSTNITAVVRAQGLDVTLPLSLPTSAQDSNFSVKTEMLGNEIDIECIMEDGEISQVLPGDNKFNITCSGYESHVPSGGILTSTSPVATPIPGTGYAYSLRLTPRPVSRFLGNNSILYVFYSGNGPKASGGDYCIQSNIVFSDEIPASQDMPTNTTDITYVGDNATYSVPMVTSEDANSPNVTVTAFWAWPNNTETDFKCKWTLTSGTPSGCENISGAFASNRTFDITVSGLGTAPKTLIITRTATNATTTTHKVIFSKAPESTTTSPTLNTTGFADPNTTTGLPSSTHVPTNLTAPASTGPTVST

B1: R28A: single-site mutant of recombinant MBP-CR2 SCR1-2 (protein)
chain: ISCGSPPPILNGRISYYSTPIAVGTVIAYSCSGTFRLIGEKSLLCITKDKVDGTWDKPAPKCEYFNKYSSCPEPIVPGGYKIRGSTPYRHGDSVTFACKTNFSMNGNKSVWCQANNMWGPTRLPTCVSVFPLE
modifications: left off: large carriers; small tags and cut ends
Consider B1, for which, in experiment [1], the “Weighting (171 mAb)” value is given as “++++ (++++>90%)” and the “% 171 mAb Binding” value amounted to 103.5%. For the same molecule, in the experiment with anti-CR2 SCR1-2 mAb 629, the “Weighting (629 mAb)” value was “++++ (++++>90%)” and the “% 629 mAb Bindng” value amounted to 103.1%. Further, the “EBV gp350 binding relative to wild-type CR2” value with EBV gp350 is “significantly decreased capacity”.

B2: R13A: single-site mutant of recombinant MBP-CR2 SCR1-2 (protein)
chain: B1 chain with R13A, A28R
modifications: left off: large carriers; small tags and cut ends
Take B2: in experiment [1], the “Weighting (171 mAb)” value is reported as “− (−19.9-0%)” and the “% 171 mAb Binding” value was 15.6%. For the same molecule, in the experiment with anti-CR2 SCR1-2 mAb 629, the “Weighting (629 mAb)” value was “++++ (++++>90%)” and the “% 629 mAb Bindng” value turned out to be 108.1%.

B3: T34A: single-site mutant of recombinant MBP-CR2 SCR1-2 (protein)
chain: B1 chain with A28R, T34A
modifications: left off: large carriers; small tags and cut ends
In the case of B3, in experiment [1], the “Weighting (171 mAb)” value is “− (−19.9-0%)” and the “% 171 mAb Binding” value amounted to 12.4%. In the experiment on anti-CR2 SCR1-2 mAb 629, the “Weighting (629 mAb)” value was “+++ (+++89.9-70%)” and the “% 629 mAb Bindng” value is on record as 84.9%.

B4: N11A: single-site mutant of recombinant MBP-CR2 SCR1-2 (protein)
chain: B1 chain with N11A, A28R
modifications: left off: large carriers; small tags and cut ends
Take B4: in experiment [1], the “Weighting (171 mAb)” value is “+ (+39.9-20%)” and the “% 171 mAb Binding” value is recorded as 24.1%. Moreover, in the experiment with anti-CR2 SCR1-2 mAb 629, the “Weighting (629 mAb)” value is given as “+++ (+++89.9-70%)” and the “% 629 mAb Bindng” value amounted to 87.5%.

B5: S32A: single-site mutant of recombinant MBP-CR2 SCR1-2 (protein)
chain: B1 chain with A28R, S32A
modifications: left off: large carriers; small tags and cut ends
With B5, in experiment [1], the “Weighting (171 mAb)” value was “+++ (+++89.9-70%)” and the “% 171 mAb Binding” value was 77.5%. Moreover, in the experiment with anti-CR2 SCR1-2 mAb 629, the “Weighting (629 mAb)” value is given as “++++ (++++>90%)” and the “% 629 mAb Bindng” value came out at 117.8%.

B6: K50A: single-site mutant of recombinant MBP-CR2 SCR1-2 (protein)
chain: B1 chain with A28R, K50A
modifications: left off: large carriers; small tags and cut ends
For B6, in experiment [1], the “Weighting (171 mAb)” value is reported as “++++ (++++>90%)” and the “% 171 mAb Binding” value is on record as 94.4%. Further, in the experiment on anti-CR2 SCR1-2 mAb 629, the “Weighting (629 mAb)” value was “+++ (+++89.9-70%)” and the “% 629 mAb Bindng” value is reported as 87.5%.

B7: S15P: single-site mutant of recombinant MBP-CR2 SCR1-2 (protein)
chain: B1 chain with S15P, A28R
modifications: left off: large carriers; small tags and cut ends
Regarding B7, in experiment [1], the “Weighting (171 mAb)” value is recorded as “++++ (++++>90%)” and the “% 171 mAb Binding” value stood at 108.5%. In the experiment with anti-CR2 SCR1-2 mAb 629, the “Weighting (629 mAb)” value is “++++ (++++>90%)” and the “% 629 mAb Bindng” value came out at 91.7%. Also, the “EBV gp350 binding relative to wild-type CR2” value in the experiment with EBV gp350 is reported as “major reduction in EBV gp350 binding”.

B8: L10A: single-site mutant of recombinant MBP-CR2 SCR1-2 (protein)
chain: B1 chain with L10A, A28R
modifications: left off: large carriers; small tags and cut ends
On to B8, for which, in experiment [1], the “Weighting (171 mAb)” value is recorded as “++++ (++++>90%)” and the “% 171 mAb Binding” value was 94.7%. For the same molecule, in the experiment with anti-CR2 SCR1-2 mAb 629, the “Weighting (629 mAb)” value is on record as “++++ (++++>90%)” and the “% 629 mAb Bindng” value is reported as 113.2%. Further, the “EBV gp350 binding relative to wild-type CR2” value with EBV gp350 is “failed to inhibit EBV gp350 binding”.

B9: K41A: single-site mutant of recombinant MBP-CR2 SCR1-2 (protein)
chain: B1 chain with A28R, K41A
modifications: left off: large carriers; small tags and cut ends
With B9, in experiment [1], the “Weighting (171 mAb)” value is “++++ (++++>90%)” and the “% 171 mAb Binding” value stood at 97.3%. Also, in the experiment on anti-CR2 SCR1-2 mAb 629, the “Weighting (629 mAb)” value was “++++ (++++>90%)” and the “% 629 mAb Bindng” value is 97.5%. For the same molecule, the “EBV gp350 binding relative to wild-type CR2” value in the experiment with EBV gp350 is “significantly decreased capacity”.

B10: T86A: single-site mutant of recombinant MBP-CR2 SCR1-2 (protein)
chain: B1 chain with A28R, T86A
modifications: left off: large carriers; small tags and cut ends
On to B10, for which, in experiment [1], the “Weighting (171 mAb)” value is “+++ (+++89.9-70%)” and the “% 171 mAb Binding” value turned out to be 89.6%. In the experiment with anti-CR2 SCR1-2 mAb 629, the “Weighting (629 mAb)” value is listed as “+++ (+++89.9-70%)” and the “% 629 mAb Bindng” value was 85.6%.

B11: Y68A: single-site mutant of recombinant MBP-CR2 SCR1-2 (protein)
chain: B1 chain with A28R, Y68A
modifications: left off: large carriers; small tags and cut ends
With B11, in experiment [1], the “Weighting (171 mAb)” value is “++++ (++++>90%)” and the “% 171 mAb Binding” value worked out at 92.1%. Further, in the experiment with anti-CR2 SCR1-2 mAb 629, the “Weighting (629 mAb)” value is “++++ (++++>90%)” and the “% 629 mAb Bindng” value is 102.3%.

B12: Y64A: single-site mutant of recombinant MBP-CR2 SCR1-2 (protein)
chain: B1 chain with A28R, Y64A
modifications: left off: large carriers; small tags and cut ends
For the molecule B12, in experiment [1], the “Weighting (171 mAb)” value is “− (−19.9-0%)” and the “% 171 mAb Binding” value came to 5.8%. For the same molecule, in the experiment with anti-CR2 SCR1-2 mAb 629, the “Weighting (629 mAb)” value is “+++ (+++89.9-70%)” and the “% 629 mAb Bindng” value is listed as 82.0%.

B13: M117A: single-site mutant of recombinant MBP-CR2 SCR1-2 (protein)
chain: B1 chain with A28R, M117A
modifications: left off: large carriers; small tags and cut ends
Turning to B13, in experiment [1], the “Weighting (171 mAb)” value is “++++ (++++>90%)” and the “% 171 mAb Binding” value turned out to be 97.2%. Besides, in the experiment with anti-CR2 SCR1-2 mAb 629, the “Weighting (629 mAb)” value was “++++ (++++>90%)” and the “% 629 mAb Bindng” value stood at 113.8%.

B14: R36A: single-site mutant of recombinant MBP-CR2 SCR1-2 (protein)
chain: B1 chain with A28R, R36A
modifications: left off: large carriers; small tags and cut ends
B14: in experiment [1], the “Weighting (171 mAb)” value is “− (−19.9-0%)” and the “% 171 mAb Binding” value is 19.8%. In the experiment with anti-CR2 SCR1-2 mAb 629, the “Weighting (629 mAb)” value is “++++ (++++>90%)” and the “% 629 mAb Bindng” value was found to be 113.9%.

B15: K57A: single-site mutant of recombinant MBP-CR2 SCR1-2 (protein)
chain: B1 chain with A28R, K57A
modifications: left off: large carriers; small tags and cut ends
Consider B15, for which, in experiment [1], the “Weighting (171 mAb)” value was “++++ (++++>90%)” and the “% 171 mAb Binding” value amounted to 91.9%. In the experiment on anti-CR2 SCR1-2 mAb 629, the “Weighting (629 mAb)” value was “+++ (+++89.9-70%)” and the “% 629 mAb Bindng” value is listed as 85.5%. For the same molecule, the “EBV gp350 binding relative to wild-type CR2” value in the experiment with EBV gp350 was “significantly decreased capacity”.

For the origin of these results see patent US20120108492A1, “LIGAND-SPECIFIC NON-ANTIBODY COMPOUNDS THAT INHIBIT CR2 ACTIVATION AND METHODS OF USE THEREOF” (The Regents of the University of Colorado, priority 2008, published 2012).
